Molecular target: T1, gp100 peptide on HLA-C*06:02 (human)
T1 peptide: HRRGSRSYV
Test: multimer staining
Description: T cells (1×10⁵) were incubated for 30 minutes at 37° C. in the presence of 50 nM dasatinib (LC laboratories). The cells were then washed and incubated with 5-10 μg/ml of multimer for 30 minutes at room temperature, and R-phycoerythrin-conjugated AffiniPure Fab fragment goat anti-mouse IgG1 (Jackson ImmunoResearch Laboratories) was added for 15 minutes at 4° C. Next, the cells were washed three times and costained with an anti-CD8 mAb for 15 minutes at 4° C. Dead cells were finally discriminated using the LIVE/DEAD Fixable Dead Cell Stain kit.

B1: C*06:02/gp100190-198 TCR (TCR, V domains shown)
Valpha: KNQVEQSPQSLIILEGKNCTLQCNYTVSPFSNLRWYKQDTGRGPVSLTIMTFSENTKSNGRYTATLDADTKQSSLHITASQLSDSASYICVVRGMDSSYKLIFGSGTRLLVRP
Vbeta: DAMVIQNPRYQVTQFGKPVTLSCSQTLNHNVMYWYQQKSSQAPKLLFHYYDKDFNNEADTPDNFQSRRPNTSFCFLDIRSPGLGDAAMYLCATSSEDSSNQPQHFGDGTRLSIL
B1: recognises.
